Laboratory results published in patent US10703792B2, “Insulin analogues with selective signaling properties and reduced mitogenicity” (Case Western Reserve University, priority 2015, dated 2020).

What was measured:
IR = IR (Homo sapiens, UniProt P06213); settings: known in the art; cited from earlier work
Sprague-Dawley rats = settings: one year of treatment; cited from earlier work
[1] = system: human breast-cancer cell line MCF-7; experiment: MCF-7 colony formation in soft agar (mitogenicity); assay type: cell-based; settings: 100 nM protein, 3 weeks, relative to basal; preliminary assays
Method: Assay for MCF-7 Colony Formation in Soft Agar.
In our preliminary assays MCF-7 cells (1.5×10^3 cells in 0.75 ml, obtained from ATCC cat #HTB-22), were mixed with an equal volume Bacto-agar at 42° C. This 0.3% agar suspension was poured over a 1.5-ml base of 0.6% agar in 12-well plates and overlaid with basal growth medium with (or without) insulin or insulin analogues at a protein concentration of 100 nM, which was replenished 3× per week. Plates were incubated at 37° C. in a CO2 tissue-culture incubator for 3 weeks, at which time colonies were stained with crystal violet and counted under an inverted microscope. A positive control was provided by IGF-I (not shown) and a negative control by medium lacking insulin or an insulin analogue (“basal” in FIG. 6).

[2] = system: male Lewis rats rendered diabetic by streptozotocin; settings: statement on a current insulin product, not tested here; cited from earlier work

Asp^B10-insulin: insulin analogue with His^B10 substituted by Asp, known in the art
Enhancement of affinity for the IR relative to insulin (IR): twofold | Mammary tumors on chronic treatment (Sprague-Dawley rats): excess mammary tumors

human proinsulin: wild-type human proinsulin (SEQ ID NO: 1)
Mitogenicity: MCF-7 colony formation in soft agar [1]: negligible activities

insulin detemir
Nanomoles needed for equivalent therapeutic effects [2]: threefold
